Experimental data as given in patent US5766581, “Method for treating mammals with monopegylated proteins that stimulates megakaryocyte growth and differentiation” (Amgen Inc., dated 1998).

Columns and labels:
[1] = molecular target: murine Mpl receptor, full length, expressed on 32D cells (subclone 1A6.1) (murine) (UniProt Q08351)
[2] = molecular target: human Mpl receptor, full length, on cells (human) (UniProt P40238)
[3] = molecular target: murine Mpl receptor, full length, expressed on 32D cells (subclone 1A6.1) (murine) (UniProt Q08351); remark: listed apart in the source
[4] = molecular target: murine Mpl receptor, full length, expressed on 32D cells (subclone 1A6.1) (murine, UniProt Q08351); experiment: cell-based or functional assay
[5] = molecular target: human Mpl receptor, full length, on cells (human, UniProt P40238); experiment: cell-based or functional assay

| Molecule | 1A6.1 cell growth, fraction diluted 1:45000 (cells per well) [1] | Human Meg assay (units/mg) [2] [units/mg] | 1A6.1 assay (units/mg) [3] [units/mg] | U/ml (- mur-MPL-X), 1A6.1 cells [4] [U/ml] | Megakaryocytes per Well (-mur-MPL-X) [5] [megakaryocytes per well] |
| --- | --- | --- | --- | --- | --- |
| 25 kd canine Mpl ligand purified from aplastic canine plasma | 6000 | 1.4e+10 | 1.05e+10 |  |  |
| 31 kd canine Mpl ligand purified from aplastic canine plasma |  | 5.7e+09 | 6.52e+09 |  |  |
| human MGDF-2 (amino acids 1-174 of SEQ ID NO: 25) (ligand) SPAPPACDLRVLSKLLRDSHVLHSRLSQCPEVHPLPTPVLLPAVDFSLGEWKTQMEETKAQDILGAVTLLLEGVMAARGQLGPTCLSSLLGQLSGQVRLLLGALQSLLGTQLPPQGRTTAHKDPNAIFLSFQHLLRGKVRFLMLVGGSTLCVR |  |  |  | 12800 | 100 |
| human MGDF-3 (amino acids 1-265 of SEQ ID NO: 27) (ligand) SPAPPACDLRVLSKLLRDSHVLHSRLSQCPEVHPLPTPVLLPAVDFSLGEWKTQMEETKAQDILGAVTLLLEGVMAARGQLGPTCLSSLLGQLSGQVRLLLGALQSLLGTQLPPQGRTTAHKDPNAIFLSFQHLLRGKDFWIVGDKLHCLSQNYWLWASEVAAGIQSQDSWSAEPNLQVPGPNPRIPEQDTRTLEWNSWTLSWTLTQDPRSPGHFLRNIRHRLPATQPPAWIFSFPNPSSYWTVYALPSSTHLAHPCGPAPPPAS |  |  |  | 0 | 2 |
